The text below walks through data of patent publication US20190359693A1.

The target of assay [1] is hemagglutinin (HA) of influenza A/waterfowl/Hong Kong/MPA892/06 (H4) (influenza A virus A/waterfowl/Hong Kong/MPA892/06 (H4)). Briefly: cell-based or functional assay.
In assay [2] the target is hemagglutinin (HA) of influenza A/New York/107/03 (PR8) (influenza A virus A/New York/107/03 (PR8)). Briefly: cell-based or functional assay.
The target in assay [3] is hemagglutinin (HA) of influenza A/chicken/Germany/n/49 (H10N7) (influenza A virus A/chicken/Germany/n/49 (H10N7)). Briefly: cell-based or functional assay.
Assay [4] has as its target hemagglutinin (HA) of influenza A/Brisbane/10/07 (H3N2) (influenza A virus A/Brisbane/10/07 (H3N2)). Kind of assay: cell-based or functional assay.
Assay [5] deals with HA of H7N3 A/NIBRG/60 (A/mallard/NL/12/00) (influenza A virus). Kind of assay: cell-based or functional assay.
Assay [6] concerns the target HA of H5N1 A/PR8 H5N1 HK97 (influenza A virus). Briefly: cell-based or functional assay.
The target in assay [7] is HA of H5N1 A/Vietnam/1194/04 (influenza A virus). Briefly: cell-based or functional assay.
The target in assay [8] is HA of H4 A/WF/HK/MPA892/06 (influenza A virus). Kind of assay: cell-based or functional assay.
Assay [9] deals with HA of H1N1 A/Puerto Rico/8/34-MA (influenza A virus). Kind of assay: cell-based or functional assay.
In assay [10] the target is HA of H1N1 A/New Caledonia/20/1999 (influenza A virus). Briefly: cell-based or functional assay.
The target in assay [11] is HA of H10N7 A/Chick/Germany/N/49 (influenza A virus). Kind of assay: cell-based or functional assay.
Assay [12] concerns the target HA of H3N2 A/Brisbane/10/2007 (influenza A virus). Briefly: cell-based or functional assay.
Assay [13] deals with HA of H3N2 A/HK/1/68 (influenza A virus) (UniProt Q91MA7). Briefly: cell-based or functional assay.
Assay [14] concerns the target HA of B/Brisbane/60/2008 (Victoria) (influenza B virus). Kind of assay: cell-based or functional assay.
The target in assay [15] is HA of B/Florida/04/2006 (Yamagata) (influenza B virus). Kind of assay: cell-based or functional assay.
Assay [16] deals with HA of B/Malaysia/2506/04 (Victoria) (influenza B virus). Briefly: cell-based or functional assay.
Assay [17] deals with HA of B/Harbin/7/94 (Yamagata) (influenza B virus). Kind of assay: cell-based or functional assay.
Assay [18] addresses HA of B/Florida/04/2006 (Yamagata) (influenza B virus). Briefly: AlphaLISA competition vs CR8033. (In general: Alpha assays give light when donor and acceptor beads are brought close together.)

Where only a bound is given, the exact number is not on record here.

B1: SD3099 (VHH)
VHH: EVQLVESGGGLVQPGGSLRLSCAASGRTLSIYSMGWFRQAPGKEREFVATIGWNSGRTFYPDSVKGRFTISRDNSKNTLYLQMNSLRAEDTAVYYCAAAKGPLRLSSQADYWGQGTLVTVSS
Take B1: the VNA IC50 in [1] worked out at 2 nM; in assay [2] it was 16 nM; in assay [3] it was 5 nM; in assay [4] it was 3 nM.

B2: SD1073 (VHH)
VHH: EVQLVESGGGLVQAGGSLRLSCAASGSAFSIAAMGWYRQAPGKQRELVATITTGGSTNYADSVKGRFTISRDNSKNTAYLQMNSLKPEDTAVYYCTAKSVVAETFGDLYNYWGQGTQVTVSS
Take B2: the VNA titer is 135 nM in [5]; 179 nM in assay [6]; 224 nM in assay [7]; above 1000 nM in assay [8]; 89.6 nM in [9]; 98.9 nM in assay [10]. Also, the VNA titer in assay [11] is 317 nM; in assay [12] it was above 1000 nM; in assay [13] it was above 1000 nM.

B3: SD1085 (VHH)
VHH: EVQLVESGGGLVQAGDSLRLSCVISGLSLDTYAVGWFRQAPGKEREGITCISSGHGMTYYADSVKGRFTVSTDNAKNTVYLQMNGLQPEDTARYYCATESRYYCSDNWPAPQRYIYWGQGTQVTVSS
For B3, the VNA titer in assay [14] amounted to 40.7 nM; in assay [15], 187 nM; in [16], 66.3 nM; in assay [17] it was 631 nM. For the same molecule, the pIC50 (as a rule, −log10 of the IC50, conventionally taken in molar units) in assay [18] is below 7.

B4: SD1069 (VHH)
VHH: EVQLVESGGGLVQAGDSLRLSCAASGPTFGMSAMGWFRQAPGKEREFVAAISGLGNPNYSDDVKGRFTISRENGRNTVYLQMNSLKPEDTAVYYCAQRKVYHVQGGDRPQAYDYWGQGTQVTVSS
For the molecule B4, the VNA titer was above 1000 nM in [5]; 242 nM in [6]; 74 nM in [7]; above 1000 nM in assay [8]; 12.8 nM in assay [9]; 20.8 nM in assay [10]. For the same molecule, the VNA titer in [11], in [12] and in [13] was above 1000 nM each time.

B5: SD3097 (VHH)
VHH: EVQLLESGGGLVQPGGSLRLSCAASGRTYAMGWFRQAPGKEREFVAAINALGTRTYYADSVKGRFTISRDNSKNTLYLQMNSLRAEDTAVYYCTAQGQWRAAPVAVAAEYEFWGQGTLVTVSS
As to B5, the VNA IC50 in assay [1] came to 6 nM; in assay [2] it was 8 nM; in assay [3], 6 nM; in assay [4], 17 nM.
